According to publication PMC10101081, “EBR-5, a Novel Variant of Metallo-β-Lactamase EBR from Multidrug-Resistant Empedobacter stercoris” (Microbiology Spectrum, 2023):

Key:
EBR-5 = target: T1, EBR-5 (Empedobacter stercoris, UniProt A0ABX1WID8); assay: beta-lactamase inhibition assay; type: biochemical
T1 construct: gene bla; 234-residue precursor; N-terminal signal peptide removed (predicted cleavage between 17 and 18, AFG-QI)

[1] = test system: C[C@@H](O)[C@H]1C(=O)N2C(C(=O)O)=C(SCCN=CN)C[C@H]12; assay: steady-state hydrolysis kinetics, Michaelis-Menten fit; type: biochemical, Empedobacter stercoris
Source text: (§1) steady-state hydrolysis kinetics, Michaelis-Menten fit on EBR-5

[2] = test system: CC(=O)OCC1=C(C(=O)O)N2C(=O)[C@@H](NC(=O)Cc3cccs3)[C@H]2SC1; assay: as above; type: biochemical, Empedobacter stercoris
Source text: as §1

[3] = test system: CO/N=C(\C(=O)N[C@@H]1C(=O)N2C(C(=O)[O-])=C(C[N+]3(C)CCCC3)CS[C@H]12)c1csc(N)n1; assay: as above; type: biochemical, Empedobacter stercoris
Source text: as §1

[4] = test system: C[C@@H](O)[C@H]1C(=O)N2C(C(=O)O)=C(S[C@@H]3CN[C@H](CNS(N)(=O)=O)C3)[C@H](C)[C@H]12; assay: as above; type: biochemical, Empedobacter stercoris
Source text: as §1

[5] = test system: O=C(Cc1cccs1)N[C@@H]1C(=O)N2C(C(=O)O)=C(/C=C/c3ccc([N+](=O)[O-])cc3[N+](=O)[O-])CS[C@H]12; assay: as above; type: biochemical, Empedobacter stercoris
Source text: as §1

[6] = test system: CC(C)(O/N=C(\C(=O)N[C@@H]1C(=O)N2C(C(=O)[O-])=C(C[n+]3ccccc3)CS[C@H]12)c1csc(N)n1)C(=O)O; assay: as above; type: biochemical, Empedobacter stercoris
Source text: as §1

[7] = test system: CO[C@@]1(NC(=O)Cc2cccs2)C(=O)N2C(C(=O)O)=C(COC(N)=O)CS[C@@H]21; assay: as above; type: biochemical, Empedobacter stercoris
Source text: as §1

[8] = test system: CO/N=C(\C(=O)N[C@@H]1C(=O)N2C(C(=O)O)=C(COC(N)=O)CS[C@H]12)c1ccco1; assay: as above; type: biochemical, Empedobacter stercoris
Source text: as §1

[9] = test system: CC1(C)S[C@@H]2[C@H](NC(=O)Cc3ccccc3)C(=O)N2[C@H]1C(=O)O; assay: as above; type: biochemical, Empedobacter stercoris
Source text: as §1

[10] = test system: CO/N=C(\C(=O)N[C@@H]1C(=O)N2C(C(=O)O)=C(COC(C)=O)CS[C@H]12)c1csc(N)n1; assay: as above; type: biochemical, Empedobacter stercoris
Source text: as §1

[11] = test system: CC1(C)S[C@@H]2[C@H](NC(=O)[C@H](N)c3ccccc3)C(=O)N2[C@H]1C(=O)O; assay: as above; type: biochemical, Empedobacter stercoris
Source text: as §1

[12] = test system: C[C@@H](O)[C@H]1C(=O)N2C(C(=O)O)=C(S[C@@H]3CN[C@H](C(=O)N(C)C)C3)[C@H](C)[C@H]12; assay: as above; type: biochemical, Empedobacter stercoris
Source text: as §1

[13] = test system: C[C@@H](O)[C@H]1C(=O)N2C(C(=O)O)=C(S[C@@H]3CN[C@H](C(=O)Nc4cccc(C(=O)O)c4)C3)[C@H](C)[C@H]12; assay: as above; type: biochemical, Empedobacter stercoris
Source text: as §1

For `O=C(O)CN(CCN(CC(=O)O)CC(=O)O)CC(=O)O` [EDTA], the IC50 (EBR-5) was 130 µM.
For `O=C(O)[C@H]1/C(=C/CO)O[C@@H]2CC(=O)N21` [clavulanic acid], the IC50 (EBR-5) was greater than 2000 µM.
For EBR-5 (Empedobacter stercoris), the Km [1] was 1,218 ± 147 μM, the kcat [1] was 124 ± 10 s⁻¹ and the kcat/Km [1] was 102000 M⁻¹ s⁻¹. For the same compound, the Km [2] was 64 ± 6.4 µM, the kcat [2] was 27 ± 0.8 s⁻¹ and the kcat/Km [2] was 419000 M⁻¹ s⁻¹. The Km [3] was 1,058 ± 58 μM, the kcat [3] was 0.1 ± 0.01 s⁻¹ and the kcat/Km [3] was 100 M⁻¹ s⁻¹. The Km [4] was 1,283 ± 161 μM, the kcat [4] was 145 ± 14 s⁻¹ and the kcat/Km [4] was 113000 M⁻¹ s⁻¹. For the same compound, the Km [5] was 15 ± 1.7 µM, the kcat [5] was 18 ± 0.5 s⁻¹ and the kcat/Km [5] was 1.17e+06 M⁻¹ s⁻¹. For the same compound, the Km [6] was 567 ± 76 µM, the kcat [6] was 0.9 ± 0.09 s⁻¹ and the kcat/Km [6] was 1600 M⁻¹ s⁻¹. The Km [7] was 182 ± 12 µM, the kcat [7] was 1.5 ± 0.04 s⁻¹ and the kcat/Km [7] was 8500 M⁻¹ s⁻¹. It also gave a Km [8] of 19 ± 2.3 µM, a kcat [8] of 2.1 ± 0.07 s⁻¹ and a kcat/Km [8] of 111000 M⁻¹ s⁻¹. The Km [9] was 116 ± 16 µM, the kcat [9] was 86 ± 2.8 s⁻¹ and the kcat/Km [9] was 745000 M⁻¹ s⁻¹. It also gave a Km [10] of 29 ± 3.9 µM, a kcat [10] of 2.8 ± 0.1 s⁻¹ and a kcat/Km [10] of 94000 M⁻¹ s⁻¹. The Km [11] was 207 ± 21 µM, the kcat [11] was 118 ± 3.3 s⁻¹ and the kcat/Km [11] was 572000 M⁻¹ s⁻¹. For the same compound, the Km [12] was 626 ± 61 µM, the kcat [12] was 147 ± 8.3 s⁻¹ and the kcat/Km [12] was 236000 M⁻¹ s⁻¹. The Km [13] was 1,507 ± 175 μM, the kcat [13] was 151 ± 13 s⁻¹ and the kcat/Km [13] was 100000 M⁻¹ s⁻¹.
